Usually Kd stands for the free concentration of one partner at which half of the binding sites on the other are occupied at equilibrium, for simple one-to-one binding. Higher therefore signals weaker binding.

The results in this text go back to publication PMC10127277, “Receptor Elimination by E3 Ubiquitin Ligase Recruitment (REULR): A Targeted Protein Degradation Toolbox” (ACS Synthetic Biology, 2023).

For this experiment, the target named is T1, human RNF130 (GOLIATH) extracellular domain (human, UniProt Q86XS8 28-194, biotin (BirA biotinylation)).
T1 construct: RNF130 (GOLIATH), human, extracellular domain (ECD); also called RNF130 ECD; source: Expi293F, purified (Ni-NTA, size-exclusion chromatography), biotinylated with BirA; not shown: AVI, C-terminal, kept
T1 sequence (looked up): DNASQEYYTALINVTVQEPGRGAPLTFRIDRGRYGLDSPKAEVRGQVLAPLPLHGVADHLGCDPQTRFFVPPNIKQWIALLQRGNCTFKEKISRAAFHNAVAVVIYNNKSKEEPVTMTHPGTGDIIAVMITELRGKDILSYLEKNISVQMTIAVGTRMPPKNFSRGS
Kind of experiment: SPR; Biacore T100; biotinylated ECD (ligand) captured on a streptavidin (SA) series S chip, ~100-200 RU; non-biotinylated VHH as analyte in HBS-P+ buffer, twofold dilutions from 500 nM (RNF128 E2, RNF130 D1) or 1000 nM (RNF43 C8); injection 60 s at 30 ul/min, dissociation 240 s; regeneration 1 x 10 sec glycine pH 2.5; 1:1 Langmuir model or equilibrium. The settings on record: both partners purified.

B1: RNF130-D1 nanobody (VHH)
VHH: QVQLQESGGGLVQAGGSLRLSCAASGTISFIGYMGWYRQAPGKERELVASIASGTSTYYADSVKGRFTISRDNAKNTVYLQMNSLKPEDTAVYYCAATQYIQDVHRYWGQGTQVTVSS
notes: VHH selected from a synthetic yeast-display nanobody library against the human RNF130 ECD; Non-biotinylated analyte in SPR; source: Expi293F, purified (Ni-NTA, size-exclusion chromatography)
For B1, the dissociation constant Kd amounted to 6.4 nM.
